Laboratory results: patent publication US20230310432A1 (JULIUS-MAXIMILIANS-UNIVERSITÄT WÜRZBURG, priority 2017, published 2023)

Tests used:
[1] = tested on: CD8+ T cells expressing a CD19 CAR with 4-1BB costimulation; experiment: Bioluminescence-based cytotoxicity assay, K562/CD19 target cells; type: cell-based, human
Method: Cytotoxicity: Target cells were stably transduced with ffluc_GFP and incubated in triplicate wells at 1×10^4 cells/well with effector T cells at an effector to target (E:T) ratio of 5:1. D-luciferin substrate (Biosynth, Staad, Switzerland) was added to the co-culture to a final concentration of 0.15 mg/ml and the decrease in luminescence signal in wells that contained target cells and T-cells was measured using a luminometer (Tecan, Mannedorf, Switzerland). Specific lysis was calculated using the standard formula.
The inventors prepared CD8+ CAR-T cell lines from n=3 healthy donors. In each of the T-cell lines, the inventors enriched CAR-expressing T cells to >90% purity using the EGFRt-transduction marker. The inventors analyzed cytolytic activity of CD8^+ CAR-T cells in a bioluminescence-based cytotoxicity assay using K562 that the inventors had transduced with either CD19 (for testing CD19 CAR-T cells) or ROR1 (for testing ROR1 CAR-T cells) as target cells. Dasatinib was added to the assay medium at the beginning of the assay.
The inventors prepared CD8^+ CAR-T cell lines from n=3 healthy donors. In each of the T-cell lines, the inventors enriched CAR-expressing T cells to >90% purity using the EGFRt-transduction marker. The inventors analyzed cytolytic activity of CD8^+ CAR-T cells in a bioluminescence-based cytotoxicity assay using K562 target cells that the inventors had transduced with CD19.
The CAR-T cell cytolytic activity was analyzed at 1-hour intervals for 10 hours.
The inventors analyzed cytolytic activity of CD8+ CAR-T cells in a bioluminescence-based cytotoxicity assay.
The inventors prepared CD8^+ CD19 CAR-T cell lines with a 4-1BB costimulatory domain from one healthy donor. In the T-cell line, the inventors enriched CAR expressing T cells to >90% purity using the EGFRt-transduction marker. The inventors analyzed cytolytic activity of CD8^+ CAR-T cells in a 4-hour bioluminescence-based cytotoxicity assay using K562 that the inventors had transduced with CD19 as target cells to assess the influence of a panel of Src-kinase inhibitors on the cytolytic function of CAR-T cells. Src-kinase inhibitors were added to the assay medium at the beginning of the assay over a 4-log concentration range.

[2] = tested on: CAR-T cells co-expressing the iCasp suicide gene; experiment: Elimination of iCasp+ T cells; type: cell-based, human; settings: dimerizer (10 nM AP20187) without dasatinib; 24 hours
Method: After 24 hours, cells were labeled with anti-CD3 mAB and analyzed by flow cytometry for the presence of iCasp+ T cells.
After 24 hours, cells were labeled with anti-CD3 mAB and analyzed by flow cytometry for the presence of iCasp^+ T cells.

[3] = tested on: CD8+ T cells expressing a ROR1 CAR with 4-1BB costimulatory domain; experiment: IFN-γ ELISA, co-culture with RCH-ACV; type: cell-based, human; settings: […] nilotinib; 20 h; 1310 pg/ml by untreated CAR-T cells
[4] = tested on: CD8+ T cells expressing a CD19 CAR with 4-1BB costimulation; experiment: CFSE proliferation assay, co-culture with K562/CD19; type: cell-based, human; settings: dexamethasone, any given concentration; 24 h-pretreatment or at start of co-culture; 72 h
[5] = tested on: CD8+ T cells expressing a CD19 CAR with 4-1BB costimulation; experiment: Cytokine production and secretion (IFN-γ, IL-2 ELISA), co-culture with K562/CD19; type: cell-based, human; settings: any given concentration of dexamethasone; pre-treated or during assay only
human SLAMF7 (human) = human SLAMF7 (human) (UniProt Q9NQ25); experiment: cell-based or functional assay
human ROR1 (human) = human ROR1 (human) (UniProt Q01973); experiment: cell-based or functional assay

With `Cc1ccc(-c2nn(C(C)(C)C)c3ncnc(N)c23)cc1` [PP1-inhibitor] the “specific lysis of target cells” value ([1]; inhibitor 10 nM, 4-hour assay, 82% by untreated CAR-T cells) was 62.4%.

With `CC[C@H](C(=O)N1CCCC[C@H]1C(=O)O[C@H](CCc1ccc(OC)c(OC)c1)c1cccc(OCC(=O)NCC(CNC(=O)COc2cccc([C@@H](CCc3ccc(OC)c(OC)c3)OC(=O)[C@@H]3CCCCN3C(=O)[C@@H](CC)c3cc(OC)c(OC)c(OC)c3)c2)CN(C)C)c1)c1cc(OC)c(OC)c(OC)c1` [dimerizer, AP20187] the “percentage of iCasp+ cells” value [2] was 45%.

With `Cc1cn(-c2cc(NC(=O)c3ccc(C)c(Nc4nccc(-c5cccnc5)n4)c3)cc(C(F)(F)F)c2)cn1` [nilotinib] the “production and secretion of IFN-γ” value [3] was 480 pg/mL.

With `C[C@@H]1C[C@H]2[C@@H]3CCC4=CC(=O)C=C[C@]4(C)[C@@]3(F)[C@@H](O)C[C@]2(C)[C@@]1(O)C(=O)CO` [dexamethasone] the “remaining proliferation compared to untreated CAR-T cells” value [4] was “less than 26%”, the “residual specific IFN-γ secretion compared to non-treated CAR-T cells” value [5] was “more than 43%” and the “residual specific IL-2 secretion compared to non-treated CAR-T cells” value [5] was “less than 17%”. For the same molecule, the “specific lysis of target cells” value ([1]; dexamethasone added at the beginning of the assay, any of the applied dosages (0.1-100 μM), 91% non-treated) was over 87% and the “specific lysis of target cells” value ([1]; pre-treated for 24 h with dexamethasone, all tested doses, t=10 h, 91% non-treated) was over 45%.

B1: SLAMF7 CAR with CD28 costimulatory domain (receptor)
chain: EVQLVESGGGLVQPGGSLRLSCAASGFDFSRYWMSWVRQAPGKGLEWIGEINPDSSTINYAPSLKDKFIISRDNAKNSLYLQMNSLRAEDTAVYYCARPDGNYWYFDVWGQGTLVTVSSGGGGSGGGGSGGGGSDIQMTQSPSSLSASVGDRVTITCKASQDVGIAVAWYQQKPGKVPKLLIYWASTRHTGVPDRFSGSGSGTDFTLTISSLQPEDVATYYCQQYSSYPYTFGQGTKVEIKESKYGPPCPPCPAPPVAGPSVFLFPPKPKDTLMISRTPEVTCVVVDVSQEDPEVQFNWYVDGVEVHNAKTKPREEQFQSTYRVVSVLTVLHQDWLNGKEYKCKVSNKGLPSSIEKTISKAKGQPREPQVYTLPPSQEEMTKNQVSLTCLVKGFYPSDIAVEWESNGQPENNYKTTPPVLDSDGSFFLYSRLTVDKSRWQEGNVFSCSVMHEALHNHYTQKSLSLSLGKMFWVLVVVGGVLACYSLLVTVAFIIFWVRSKRSRGGHSDYMNMTPRRPGPTRKHYQPYAPPRDFAAYRSRVKFSRSADAPAYQQGQNQLYNELNLGRREEYDVLDKRRGRDPEMGGKPRRKNPQEGLYNELQKDKMAEAYSEIGMKGERRRGKGHDGLYQGLSTATKDTYDALHMQALPPR
For B1, the specific lysis of K562/SLAMF7 target cells by CD8+ CAR-T cells without dasatinib, t=6 h (human SLAMF7 (human)) was 67% and the specific lysis of K562/SLAMF7 target cells by CD8+ CAR-T cells without dasatinib, t=12 h (human SLAMF7 (human)) was 85%.

B2: ROR1 CAR with 4-1BB costimulatory domain (receptor)
chain: QVQLVESGGALVQPGGSLTLSCKASGFDFSAYYMSWVRQAPGKGLEWIATIYPSSGKTYYAASVQGRFTISADNAKNTVYLQMNSLTAADTATYFCARDSYADDGALFNIWGQGTLVTVSSGGGGSGGGGSGGGGSQLVLTQSPSVSAALGSSAKITCTLSSAHKTDTIDWYQQLAGQAPRYLMYVQSDGSYEKRSGVPDRFSGSSSGADRYLIISSVQADDEADYYCGADYIGGYVFGGGTQLTVGESKYGPPCPPCPMFWVLVVVGGVLACYSLLVTVAFIIFWVKRGRKKLLYIFKQPFMRPVQTTQEEDGCSCRFPEEEEGGCELRVKFSRSADAPAYQQGQNQLYNELNLGRREEYDVLDKRRGRDPEMGGKPRRKNPQEGLYNELQKDKMAEAYSEIGMKGERRRGKGHDGLYQGLSTATKDTYDALHMQALPPR
B2 showed an IFN-γ in supernatant (ELISA) of co-culture with RCH-ACV target cells, untreated CD8+ CAR-T cells (human ROR1 (human)) of 1310 pg/mL, a proliferation index (CFSE) after 72 h co-culture with RCH-ACV, untreated CD8+ CAR-T cells (human ROR1 (human)) of 2.84 and a specific lysis of K562/ROR1 target cells by CD8+ CAR-T cells without dasatinib, t=10 h (human ROR1 (human)) of 94%. The specific lysis of K562/ROR1 target cells by CD8+ CAR-T cells without dasatinib, up to t=5 h (human ROR1 (human)) was 73% and the specific lysis of RCH-ACV target cells by untreated CD8+ CAR-T cells, t=8 hours (human ROR1 (human)) was over 90%.

B3: SLAMF7 CAR with 4-1BB costimulatory domain (receptor)
chain: EVQLVESGGGLVQPGGSLRLSCAASGFDFSRYWMSWVRQAPGKGLEWIGEINPDSSTINYAPSLKDKFIISRDNAKNSLYLQMNSLRAEDTAVYYCARPDGNYWYFDVWGQGTLVTVSSGGGGSGGGGSGGGGSDIQMTQSPSSLSASVGDRVTITCKASQDVGIAVAWYQQKPGKVPKLLIYWASTRHTGVPDRFSGSGSGTDFTLTISSLQPEDVATYYCQQYSSYPYTFGQGTKVEIKESKYGPPCPPCPAPPVAGPSVFLFPPKPKDTLMISRTPEVTCVVVDVSQEDPEVQFNWYVDGVEVHNAKTKPREEQFQSTYRVVSVLTVLHQDWLNGKEYKCKVSNKGLPSSIEKTISKAKGQPREPQVYTLPPSQEEMTKNQVSLTCLVKGFYPSDIAVEWESNGQPENNYKTTPPVLDSDGSFFLYSRLTVDKSRWQEGNVFSCSVMHEALHNHYTQKSLSLSLGKMFWVLVVVGGVLACYSLLVTVAFIIFWVKRGRKKLLYIFKQPFMRPVQTTQEEDGCSCRFPEEEEGGCELRVKFSRSADAPAYQQGQNQLYNELNLGRREEYDVLDKRRGRDPEMGGKPRRKNPQEGLYNELQKDKMAEAYSEIGMKGERRRGKGHDGLYQGLSTATKDTYDALHMQALPPR
In the case of B3, the specific lysis of K562/SLAMF7 target cells by CD8+ CAR-T cells without dasatinib, t=6 h (human SLAMF7 (human)) is reported as 63% and the specific lysis of K562/SLAMF7 target cells by CD8+ CAR-T cells without dasatinib, t=12 h (human SLAMF7 (human)) is reported as 83%.
